Consider 41 sequences from the nanobody polyreactivity screen of Harvey et al. (2022).

A short description of the data set: yeast display, Sf9 membrane polyspecificity reagent, FACS + sequencing; frameworks hold sequencing errors. The method in brief:
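A synthetic nanobody library was expressed on Saccharomyces cerevisiae BJ5465 by galactose induction for 36–48 hours. The library was stained for 1 hour at 4 °C with 10% biotinylated, detergent-solubilized Sf9 membrane reagent and enriched with streptavidin microbeads before FACS. Low and high (top ~1%) gates were set on anti-HA fluorescence for expression and streptavidin fluorescence for reagent binding, and each polyreactivity label reflects the gate of origin.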
Consider “QVQLVESGGGLVQAGGSLRLSCAASGRIFSVYTMGWYRQAPGKERELVAGISRGGSTDYADSVKGRFTISRDNAKNTVYLQMNSLKPEDTAVYYCAATYTYRWYQFNFWGQGTQVTVSS”, for which the “polyreactivity (PSR sort gate)” value is listed as “high polyreactivity”.
To “QVQLVESGGGLVQAGGSLRLSCAASGRIFSWYTMGWYRQAPGKERELVAGITWSGGSTYYADSVKGRFTISRDNAKNTVYLQMNSLKPEDTAVYYCAAGGVSFGYYKYYYWGQGTQVTVSS” belongs “high polyreactivity”; to “QVQLVESGGGLVQAGGSLRLSCAASGRIFSWYTMGWYRQAPGKERELVAIISRSGGSTYYADSVKGRFTISRDNAKNTVYLQMNSLKPEDTAVYYCNARWSFSYTVWVDSYWGLDDYWGQGTQVTVSS”, “high polyreactivity”; to “QVQLVESGGGLVQAGGSLRLSCAASGRIFSYAMGWYRQAPGKERELVAGSTYYADSVKGRFTISRDNAKNTVYLQMNSLKPEDTAVYYCNVGGYGLRGDYWGQGTQVTVSS”, “low polyreactivity”.
Then “QVQLVESGGGLVQAGGSLRLSCAASGRIFSYNAMGLYRPAPVKERELFAAITFSGGGTYYADSVKGRFTISRDNAKNTVYLQMKSLKPEDTAVYYCNKVSYGYSTYGYWGQGTQVTVSS”, with “low polyreactivity”; and “QVQLVESGGGLVQAGGSLRLSCAASGRIFSYNAMGWYRQAPGKEREFVAAIDWRAGSTYYADSVKGRFTISRDNAKKTVYLQMNSLKPEDTAVYYCAVEFGAYPFLYYYWGQGTQVTVSS”, with “high polyreactivity”.
To “QVQLVESGGGLVQAGGSLRLSCAASGRIFSYNAMGWYRQAPGKERELVAAISYGGGRTYYADSVKGRFTISRDNAKNTVYLQMNSLKPEDTAVYYCAASQYRSPYPYRDYYTPDYDYWGQGTQVTVSS” belongs “high polyreactivity”; to “QVQLVESGGGLVQAGGSLRLSCAASGRIFSYNAMGWYRQAPGKERELVAAISYGGGRTYYADSVKGRFTISRDNAKNTVYLQMNSLKPEDTAVYYCAATSSLGDFRYDYWRQGTQVTVSS”, “high polyreactivity”; to “QVQLVESGGGLVQAGGSLRLSCAASGRIFSYYAMGWYRQAPGKERELVAAINWSGSSTYYADSVKGRFTISRDNAKNTVYLQMNSLKPEDTAVYYCAAGVPKNGQAGYDYWGQGTQVTVSS”, “high polyreactivity”.
As to “QVQLVESGGGLVQAGGSLRLSCAASGRIFSYYAMGWYRQAPGKERELVAAISWNGGSTYYADSVKGRFTISRDNAKNTVYLQMKSLKPEDTAVYYCAAESYFNNWRNRYDYCGQGTQVTVSS”, the “polyreactivity (PSR sort gate)” value is listed as “high polyreactivity”.
To “QVQLVESGGGLVQAGGSLRLSCAASGRIFSYYAMGWYRQAPGKERELVAAISWNGGSTYYADSVKGRFTISRDNAKNTVYLQMNSLKPEDTAVYYCNRLGYRTGYERDYWGQGTQVTVSS” belongs “high polyreactivity”.
Then “QVQLVESGGGLVQAGGSLRLSCAASGRIFSYYAMGWYRQAPGKERELVAAISYSRTYYADSVKGRFTISRDNAKNTVLLQMNSLKPEDTAVYYCNVKSKYRYGYWGQGTQVTVSS”, with “high polyreactivity”.
Then “QVQLVESGGGLVQAGGSLRLSCAASGRIFSYYAMGWYRQAPGKERELVAAITWSGGRTYYADSVKGRFTISRDNAKNTVYLQMNSLKPEDTAVYYCAAQGSRWWGFDYWGQGTQVTVSS”, with “high polyreactivity”; and “QVQLVESGGGLVQAGGSLRLSCAASGRIFSYYAMGWYRQAPGKERELVARITSRGASTYYADSVKGRFTISRDNAKNTVYLQMNSLKPEDTAVYYCATDRYRIYPDYDYWGQGTQVTVSS”, with “high polyreactivity”.
With “QVQLVESGGGLVQAGGSLRLSCAASGRIFSYYAMGWYRQAPGKERELVATINSGGSTNYADSVKRRFTISRDNAKNTVYLQMNSLKPEDTAVYYCAASPVWWSDYWGQGTQVTVSS”, the “polyreactivity (PSR sort gate)” value is on record as “low polyreactivity”.
As to “QVQLVESGGGLVQAGGSLRLSCAASGRIFSYYAMLWYRQAPGKERELVATINSGGSTNYADSVKGRFTISRDNAKNTVYLQMNSLKPEDTAVYYCAASPVWWYDNWGQGTQVTVSS”, the “polyreactivity (PSR sort gate)” value is given as “low polyreactivity”.
Then “QVQLVESGGGLVQAGGSLRLSCAASGRIFSYYDMGWYRQAPGKERELVARISYSGDSTYYADSVKGRFTISRDNAKNTVYLQMNSLKPEDTAVYYCAADSITSKNQGLDYDYWGQGTQVTVSS”, with “low polyreactivity”.
To “QVQLVESGGGLVQAGGSLRLSCAASGRIFSYYDMGWYRQAPGKERELVAVISSRGGSTFYADSVKGRFTISRDNAKNTVYLLMNSLKAEDTAVYDCASRSLYVGYDYWGQCTQVTVSS” belongs “high polyreactivity”; to “QVQLVESGGGLVQAGGSLRLSCAASGRIFSYYTMGWYRQAPGKERELVAAISYRGGSTYADSVKGRFTISRDNAKNTVYLQMNSLKPEDTAVYYCAADDLSYVGYYYGYVDDDYWGQGTQVTVSS”, “high polyreactivity”; to “QVQLVESGGGLVQAGGSLRLSCAASGRIFTANAMGWYRQAPGKERELVAAITTSDGTYYADSVKGRFTISRDNAKNTVYLQMNSLKPEDTAVYYCATDTATYPTAMDYWGQGTQVTVSS”, “low polyreactivity”.
Then “QVQLVESGGGLVQAGGSLRLSCAASGRIFTAYAMGWYRQAPGKERELVARISKRGGSTYYADSVKGRFTISRDNAKNTVYLQMNSLKPEDTAVYYCAKSSWTFGAYNYWGQGTQVTVSS”, with “high polyreactivity”; and “QVQLVESGGGLVQAGGSLRLSCAASGRIFTAYYAMGWYRQAPGKERELVASISSSGTSTYADSVKGRFTISRDNAKNTVYLQMNSLKPEDTAVYYCATRKLRTRRYDYGYWGQGTQVTVSS”, with “low polyreactivity”.
In the case of “QVQLVESGGGLVQAGGSLRLSCAASGRIFTDYAMGWYRQAPGKEREFVAAINKSGGSTYYADSVKGRFTISRDNAKNTVYLQMNSLKPEDTAVYYCAKPHVIYPSYDYWGQGTQVTVSS”, the “polyreactivity (PSR sort gate)” value is on record as “low polyreactivity”.
To “QVQLVESGGGLVQAGGSLRLSCAASGRIFTDYAMGWYRQAPGKERELVAAINFSGGSTYYADSVKGRFTISRDNAKNTVYLQMHSLKPEDTAVYYCAAQGYYDDMYYWGQGTQVTESS” belongs “high polyreactivity”; to “QVQLVESGGGLVQAGGSLRLSCAASGRIFTDYAMGWYRQAPGKERELVASITERGGSTDYADSVKGRFTISRDNAKITVYLQMNSLKPEDTAVYYCNARDVTLWEDVYQQDGSGSWGLGTQVTVSS”, “low polyreactivity”; to “QVQLVESGGGLVQAGGSLRLSCAASGRIFTGNALGWYRPAPGKERELVAVINRTGGSTYYADSVKGRFTISRDNAKNTVYLQMNSLKPEETAVYSCAAYVPWGWRYGYNYWGQGTQVTVSS”, “high polyreactivity”.
To “QVQLVESGGGLVQAGGSLRLSCAASGRIFTGNAMGWYRQAPGKERELVAAISASGGRTYYAYSVKGRFTISRDHAKNTVYLQMNSLKPEDTAVYYCAKVGRTAYTSTYTGVSAYDYWGQGTQVTVSS” belongs “high polyreactivity”; to “QVQLVESGGGLVQAGGSLRLSCAASGRIFTGNAMGWYRQAPGKERELVAAITFSGGSTYYADSVKGRFTISRDNAKNTVYLQMNSLKPEDTAVYYCATRSAWYGNWYYYWGQGTQVTVSS”, “high polyreactivity”; to “QVQLVESGGGLVQAGGSLRLSCAASGRIFTGNAMGWYRQAPGKERELVATISTGGSTNYADSVKGRFTISRDNAKNTVYLQMNSLKPEDTAVYYCAADTYYGYIIHVEYWGQGTQVTVSS”, “low polyreactivity”.
As for “QVQLVESGGGLVQAGGSLRLSCAASGRIFTGNAMGWYRQAPGKERELVATITRRGGSTYYADSVKGRFTISRDHAKNTVYLQMNSLKPEDTAVYYCDANRLFSYDKYGYWGQGTQVTVSS”, the “polyreactivity (PSR sort gate)” value is “high polyreactivity”.
Then “QVQLVESGGGLVQAGGSLRLSCAASGRIFTGNAMGWYRQAPGKEREWVATITRRGGSTYYADSVKGRFTISRDNAKNTVYLQMNSLKPEDTSVYYCAANRMFSNDKYGYWGQGTQVTVSS”, with “high polyreactivity”; and “QVQLVESGGGLVQAGGSLRLSCAASGRIFTGNAMGWYRQAPGKESQLVAAITRNGGSTYYADSVKGRFTISRDNEKYTVYLQMNRLKPEDTAVYYCNARYSTTYYGTIYRGMDYWGQGSQVTVSS”, with “high polyreactivity”; and “QVQLVESGGGLVQAGGSLRLSCAASGRIFTGNVMGWYRQAPGKERELVAAISYGGGSTNYADSVKGRFTISRDNAKNTVYLQMNSLKPEDTAVYYCAACIKRYLSYYTRYGYWGQGTQVTVSS”, with “high polyreactivity”.
Then “QVQLVESGGGLVQAGGSLRLSCAASGRIFTGYAMGWNRQAPGKERELVAAISRGGSTNYADSVKGRFTISRDNAKNSVYLQMNSLKPEDTAVYYCAAGVHWDRGDYWGQGTQVTVSS”, with “low polyreactivity”; and “QVQLVESGGGLVQAGGSLRLSCAASGRIFTGYAMGWYRQAPGKEREFVAAITGRGGSTYYADSVKGRFTISRDNAKNTVYLQMNSLKPEDTAVYYCNALPRSPWYYRGDYWGQGTQVTVSS”, with “high polyreactivity”; and “QVQLVESGGGLVQAGGSLRLSCAASGRIFTHNTMGWYRQAPGKERELVATIDSGGSTNYADSVNGRFTISRDNAKNTVNLQMNSLQPEDTAVYYCAARVRPWRYLMGYWGQGTQVTVSS”, with “low polyreactivity”.
Then “QVQLVESGGGLVQAGGSLRLSCAASGRIFTINAMGWYRQAPGKDRELVAAITGSAASTYYADSVKGRFTISRDNAKNTVYLQMYSLKPEDTAVYYSNARPAGRGYNYWGQGTQVTVSS”, with “high polyreactivity”.
In the case of “QVQLVESGGGLVQAGGSLRLSCAASGRIFTIYAMGWYRQAPGKERELVAAISDRGTRTYYADSVKGRFTISRDNAKNTVYLQMISLKPEVTAVYYCATDALYTYGYDYWGQGTQVTVSS”, the “polyreactivity (PSR sort gate)” value was “low polyreactivity”.
Then “QVQLVESGGGLVQAGGSLRLSCAASGRIFTIYAMGWYRQAPGKERELVAAISGGGGITNYADSVKGRFTISRDNAKNTVYLQMNSLKPEDTAVYYCAATPRAPRTISLYNYWGQGTQVTVSS”, with “high polyreactivity”; and “QVQLVESGGGLVQAGGSLRLSCAASGRIFTIYAMGWYRQEPGKERELVAAITRGGNTNYADSVKGRFTISRDNAKNTVYLLMNSLKPEDTAVYYCAARANVYTKKRDYWGQGTQVTVSS”, with “high polyreactivity”.
Then “QVQLVESGGGLVQAGGSLRLSCAASGRIFTKYAMGWYRQAPGKERELVAAISRGGSNTYYADSVKGRFTISRDIAKNTVYLQMNSLKPEDTAVYYCNKPYSYVGWPGTGPDPKTVYYWGQGTQVTVSS”, with “high polyreactivity”.
